Molecular target: HIV-1 reverse transcriptase p66 subunit, wild type (HIV-1)
Experiment: glycerol gradient ultracentrifugation

Substance: HIV-1 reverse transcriptase p66 subunit, wild type (enzyme)
- stoichiometry N: 2
